# Source: the nanobody polyreactivity screen of Harvey et al. (2022)
# Assay: yeast display, Sf9 membrane polyspecificity reagent, FACS + sequencing; frameworks hold sequencing errors
# How it was run: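 A nanobody's polyreactivity label depends on the gate it was sorted from. Yeast display cells were stained with 10% biotinylated, detergent-solubilized Sf9 membrane reagent for 1 hour at 4 °C, enriched on streptavidin microbeads and sorted by FACS. The low and high (top ~1%) gates were set on anti-HA fluorescence for expression and streptavidin fluorescence for reagent binding.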
row,Sequence,polyreactivity (PSR sort gate)
1,QVQLVESGGGLVQAGGSLRLSCAASGRIFTQYAMGWYRQAPGKERELVAAISYGGGTTHYADSVKGRFTISRDNAKNTVYLQMNSLKPEDTAVYYCAADGGRQVYTQLYDYWGQGTQVTVSS,low polyreactivity
2,QVKLVESGGGLVQAGGSLRLSCAASGSTINLYDMGSYIQAPGKERELVADISRGGSTNYADSVKGRFTITRDNAKNTVYLQMNSLIPEDTAVYYCAAFYFTYDFWTYSFAEYDYWGQGTQVTVSS,high polyreactivity
3,QVQLVESGGGLVQAGGSLRLSCAASGRTLRSYAMGWYRQAPGKERELVARISSGGSTTYADSVKGRFTISRDNAKNTVYLQMNSLKPEDTAVYYCNAQLVYTVYRLRYYHWGQGTQVTVSS,high polyreactivity
4,QVQLVESGGGLVQAGGSLRLSCAASGSIFGIYAKGWYRQAPGKERELVAAITTTGGTSDYADSVKGRFTISRENAKNTVYVQMKSLKPVDTAVYYCAADAYYYWYYSLDYYYWGQGTQVTVSS,high polyreactivity
5,QVQLVESGGGLVQAGGSLRLSCAASGSTFWGNAMGWYRQAPGKERELVAAISWIGGGTYYADSVKGRFTISRDNAKNTVYLQMNSLKPEDTAVYYCAAKIFIRVHYYSYRMYYWGQGTQVTVSS,low polyreactivity
6,QVQLVESGGGLVQEGGSLRLRCAASGSTFIRYVMGWYRQAPGKERELVAGINSSGGSTNYADSVKGRFTISRDNAKNTVYLQMNSLKPVDTAVYYCNADLRSEYVYWGQGTQVTVSS,low polyreactivity
7,QVQLVESGGGLVQAGGSLRLSCAASGSTFVVYAMGWYRQAPGKEREFVAAITYRGGRTYYADSVKGRFTISRDNAKNTVYLQMNSLKPEDTAVYYCNAPIVRSGYVRSIPAVYYSYYYWGQGTQVTVSS,high polyreactivity
8,QVQLVESGGGLVQAGGSLRLSCAASGSIFAIYVMGWYRQAPGKERELVAAISYRSGSTYYADSVKGRFTISRDNAKNTVYLQMNSLKPEDTAVYYCAATSRYYTFGYWGQGTQVTVSS,low polyreactivity
9,QDQLVESGGALVQAGGSLRLSCAPSGGTFWIYAMGWYRQAPGKERELVAGITTSGATTYYADSVKGRFTISRDNAKNTVYLQMNSLKPVDTAVYYCAADEYYRYEYWGHGTQVTVSS,low polyreactivity
10,QVQLVESGGGLVQAGGSLRLSCAASGLTFPRYAMGWYRQAPGKEREFVAGITYSGGSTYYADSVKGRFTISRDNAKNTVYLQMNSLKPEDTAVYYCAATPWSYEYYYWGQGTQVTVSS,low polyreactivity
11,QVQLVESGGGLVQAGGSLRLSCAASGFTFTKYAMGWYRQAPGKERELVAAISGRGGSTYYADSVKGRFTISRDNAKNTVYLQMNSLKPEDTAVYYCAKYRYTVAGYNYWGQGTQVTVSS,high polyreactivity
12,QVQLVESGGGLVQAGGSLRLSCAASGYTLSLNAMGWYRQAPGKERELVAVISWNGGRTRYADSVKGRFTISRDNAKNTVYLQMNSLKPEDTAVYYCNADIYARTYAGYYQWRPYDYWGQGTQVTVSS,high polyreactivity
13,QVQLVESGGGLVQAGGSLRLICAASGRTFATYAMGWYRQAPGKERELVAAISNSGGRTNYADSVKGRFTISRDNAKNTVYLLMNSLKPEDTAVFYCATKAYTSGRYYWGQGTQVTVSS,high polyreactivity
14,QVQLVESGGGLVQAGGSLRLSCDASGFTFVDYTMGWYRQAPGKERELVAAISRRGGSTYYADSVKGRFTISRANSKNTVYLQLNSLQQADTAVYYCNAYRRNYYYYQRHGYWGQCTQVTVSS,high polyreactivity
15,QVQLVESGGGLVQAGGSLRLSCAASGFTFARYAMGWYRQAPGKERELVASISGSGGSTYYADSVKGRFTISRDNAKNTVYLQMNSLKPEDTAVYYCAADTWYGFDWGQGTQVTVSS,high polyreactivity
16,QVQLVESGGCLVQAGGSLRLSCAASGRTFYTYAIGWYRQAPGQERELVAGIRTGGGSTYYADSVKGRFTISRDNAKNTVYLQMNSLKPEDTAVYYCAADTYDGYDYWGQGTQVTVSS,low polyreactivity
17,QVQLVESGGGLVQAGGSLRLSCAASGLTLSYTMGWYRQAPGKERELVASITWSGTRTYYADSVKGRFTISRDNAKNTVYLQMNSLKPEDTAVYYCARRSSYGSWGYNYWGQGTQVTVSS,high polyreactivity
18,QVQLVESGGCLVQAGGSLRLSCAASGRIFPGYAMGWYRQAPGKEREFVAAITASGGTTYYADSVKGRFTISRDNAKNTVYLQMNSLKPEDTAVYYCAKYRYTVAGYNYWGQGTQVTVSS,high polyreactivity
19,QVQLVESGGGLVQAGGSLRLSCAASGIIFRNYAMGWYRQAPGKERELVAAISRNGGSTYYADSVKGRFTISRDNAKNTVYLQMNSLKPEDTAVYYCAAVSPGTVTNGKSRDYWGQGTQVSVSS,high polyreactivity
20,QVQLVESGGGLVQAGGSLRLSCAASGRTFSGNTMGWYRQAPGKERELVAAITGRGGSTYYADSVKGRFTISRDNAKNTVYLQMNSLKPEDTAVYYCAALRYTFAGRFDYWGQGTQVTVSS,high polyreactivity
21,QVQLVESGGGLVQAGGSLRLICAASGRTFGPYAMGWYRQAPGKEREFVAAITWRGGRTNYADSVKGRFTISRDNAKNTVYLQMNSLKPEDTAVYYCNAVISPHQWIRGGDSWGQGTQVTVSS,low polyreactivity
22,QVPLVESGGGLVQGGGSLRLSCAASGSIFRGNAMGWYRQAPGKERELVAAISKSGGSTYYADSVKGRFTISRDNAKNTVYLHMNSLKPEDTAVYYCAARTTYLYGRYYWGQGTQVTVSS,low polyreactivity

row,Sequence,polyreactivity (PSR sort gate)
1,QVQLVESGGGLVQAGGSLRLSCAASGSIFRFNAMGWYRPAPGKERELVAAISDSGGRTYYADSVKGRFTISRDNAKNTVYLQMNSLKPEDTAVYYCNAYVHTQGGDYWGQGTQVTVSS,high polyreactivity
2,QFQLVESGGGLVQSGGSLRLSCAASGFIFRSYAMGWYRQAPVKERELVAVISRRGVNTHYADSVKGRFTISRDNAKNTVYLQMNSLKPEDTAVYYCAKGLTAVGDYWGQGTQVTVSS,high polyreactivity
3,QVQLVESGGGLVQAGGSLRLSCAASGITFGWNAMGWYRPAPGKERELVAAITEDGDSTYYADSVKGRFTISRDNAMNTVYLQMNSLKPEDTAGYYCAAEYYDVYTYVQYDSWGQGTQVTVSS,high polyreactivity
4,QVELVESAAGLVQAGGSLRLSCAASALTFSRYTMGWYSQAPGKDRELVAAISRSGASTYYADSVKGRFTISRDNAKNTVYLQTNSLTPEDTGVYYCAKTSTSYGSLPKVTPYPLDYWGQGTQVTVSS,high polyreactivity
5,QVQLVESGGGLVQAGGSLRLSCAASGRTFPGNAMGWYRQAPGKEREFFAAITRSGGSTYADSVKGRFTISRDNAKNTVYLQMNSLKPEDTAVSYCAATFKWYSHTKPRFDYWGQGTKVTVSS,low polyreactivity
6,QVQLVESGGGLVQAGGSLRLSCAASGFIFVRYAMGWYRQAPGKERELVAAISWRGGSTYYADSVKGRFTISRDNAKNTVYLQMNSLKPEDTAVYYCAAVTWVHRYSRFHPFVAFDYWGQGTQVTVSS,high polyreactivity
7,QVQLVESGGGLVQAGGSLRLSCAASGRTFKRNAMGWYRQAPGKERELVASISWRGGSTYYADSVKGRFTISRDNAKNTVFLQMKSLKPEDTAVYYCAAQYPVWRRLYRTWLVAEVDYWGQGTQVTVSS,low polyreactivity
8,QVQLVESGGGLVQAGGSLRLSCAASGFTFTYYAMGWYRQAPGKERELVAAISRNGGDTYYADSGKGRFTISRDNAKNTVYLQMNSLKPEDSAVYYCNARTPTDSTHFDYWGQGTQVTVSS,low polyreactivity
9,QVQLVESGGGLVQAGGSLRLICAASGRTLSGYAMGWYRQAPGKERELVAAISSDGRTYYADSVKGRFTISRDNAKNTVYLQMNSLKPEDTAVYYCAKVRRGSYGYWGQGTQVTVSS,high polyreactivity
10,QVQLVESGGGLVQAGGSLRLSCAASGSILYVYAMGWYRQAPGKERELVAVITSGGSTNYADSVKGRFTISRDNAKNTVYLQMHSLKPEDSAVYHCAAYYDYDWKYAPSFDYGYWGQGTQVTVSS,low polyreactivity
11,QVQLVESGGGLVQAGGSLRLSCAASGFILGLNALGWYRHAPGKAWEFVADISWSGDSTYYADSVKGRFTISRDNAKNTVYLQMNSRKPEDTAVYYCPAVWYTSRQKYDYWGQGTQGTVSS,low polyreactivity
12,QVQLVESGGGLVQAGGSLRLSCAASGGTFYYYAMGWYRQAPGKERELVAAISRDGSTYYADSVKGRFTISRDNAKNTVYLQMNSLKPEDTAVYYCAVRTRRKYGYWGQGTQVTVSS,high polyreactivity
13,QVQLVESGGGLVQAGGSLRLSCAASGRTFALYALGRYRQAPGKERELVASISWRGGSTYYADSVKGRFTISRDNANNTVYVQMNRLKPEDTAVSYCAADTGSYGPLIYRLEYWGQGTQVNVSS,low polyreactivity
14,QVQLVESGGGLVQAGGSLRLSCAASGRIFHGYAMGWYRQAPGKERDLDAAISWRGDSTYYADSVKGRFTISRDNAKNTVYLQINSLKPEDTAVYYCAAASRSWRDDYWGQCTQVTVSS,low polyreactivity
15,QVQLVESGGVLVQAGGSLRLSCAASGRTFFNYAMGWYRQAPGKESEFVASISWSDVITYYADSVKGRFTISRDNAKNTVYLQMNSLKQEDTAVYYCAASKVGGGEEYWGQGTQVTVSS,low polyreactivity
16,QVQLVESGRGLVQAAGSLRLSCASSGSTYFGNTMVWYRQAPGKERELVATITRRGGTTYYADSVKGRFTISRDNAKNSVFLQMNSLKPEDTAVYYCAKRGPYTKYDYWGQGTQVTVSS,low polyreactivity
17,QVQLVESGGGLVQAGGSLRLSCAASGLIFSRYAMGWYRQAPGKERELVAAITYRTVRTYYADSVKGRFTISRDNAKNTVYLQMNSLKPEDTAVYYCAADSARQRDYWGQGTQVTVSS,high polyreactivity
18,QVQLVESGGGLVQAGGSLRLSCAASGFTFARYTMGWYRQAPGKERELVAAISSRGSSTYYADSVKGRFTISRDNAKNTVFLQMNSLKPEDTAVYYCAASPYDTQTLDYDYWGQGTQVTVSS,high polyreactivity
19,QVQLQESGGGLVQAGGSLRLSCAASGIIFDNPNMGWYRQAPGKERELVATINSGATTNYADSVKGRFTISRDNAKNTVYLQMNSLIPEDTAVYYCAVDLSPTYFYYWGQGTQVTVSS,high polyreactivity
20,QVQLVESGGGLVQAGGSLRLSCAASGRTFYQYDMGWYRQAPGKESELVAAIDWSGGSTYYADSVKGRFTISRDYAKITVYLQMNSLKPEDTAVYYCNADAYPHPVVGYDYWGQGTQVTVSS,low polyreactivity
21,QVQLVESGGGLVQAGGSLRLSCAASGRTFPWYAMGWYRQAPGKERELVAAITISGGRTYYADSVKGRFTISRDNAKNTVYLQMNSLKPEDTAVYYCAAKTSFRYFNYAKPSYGYDYWGQGTQVTVSS,high polyreactivity
